From patent US7749976
Marks after values point to notes of the source that are not given here.

Sequence of MyBP Ser(P)/Tyr(P) (P02686 whole entry): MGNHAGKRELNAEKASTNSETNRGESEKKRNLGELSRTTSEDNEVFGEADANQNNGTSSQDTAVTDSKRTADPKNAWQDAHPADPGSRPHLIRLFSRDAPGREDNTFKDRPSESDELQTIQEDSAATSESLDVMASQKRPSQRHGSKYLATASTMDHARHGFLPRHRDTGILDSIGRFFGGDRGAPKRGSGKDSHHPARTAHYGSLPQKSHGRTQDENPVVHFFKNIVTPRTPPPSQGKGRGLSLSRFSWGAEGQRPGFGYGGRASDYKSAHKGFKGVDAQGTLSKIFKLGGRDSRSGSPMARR
Sequence of MyBP Tyr(P) (P02686 whole entry): as above

B1: TC-PTP (protein)
chain: MPTTIEREFEELDTQRRWQPLYLEIRNESHDYPHRVAKFPENRNRNRYRDVSPYDHSRVKLQNAENDYINASLVDIEEAQRSYILTQGPLPNTCCHFWLMVWQQKTKAVVMLNRIVEKESVKCAQYWPTDDQEMLFKETGFSVKLLSEDVKSYYTVHLLQLENINSGETRTISHFHYTTWPDFGVPESPASFLNFLFKVRESGSLNPDHGPAVIHCSAGIGRSGTFSLVDTCLVLMEKGDDINIKQVLLNMRKYRMGLIQTPDQLRFSYMAIIEGAKCIKGDSSIQKRWKELSKEDLSPAFDHSPNKIMTEKYN
- Phosphatase activity (mole of phosphate released/min/mol of enzyme) (Casein Ser(P)): ~0.0^b
- Phosphatase activity (mole of phosphate released/min/mol of enzyme) (mol/(min mol)) (Casein Ser(P)): 1440
- Phosphatase activity (mole of phosphate released/min/mol of enzyme) (mol/(min mol)) (MyBP Tyr(P)): 195
- Phosphatase activity (mole of phosphate released/min/mol of enzyme) (MyBP Ser(P)/Tyr(P)): ~0.0^b

B2: VHR (protein)
chain: MSGSFELSVQDLNDLLSDGSGCYSLPSQPCNEVTPRIYVGNASVAQDIPKLQKLGITHVLNAAEGRSFMHVNTNANFYKDSGITYLGIKANDTQEFNLSAYFERAADFIDQALAQKNGRVLVHCREGYSRSPTLVIAYLMMRQKMDVKSALSIVRQNREIGPNDGFLAQLCQLNDRLAKEGKLKP
- Phosphatase activity (mole of phosphate released/min/mol of enzyme) (Casein Ser(P)): ~0.0^b
- Phosphatase activity (mole of phosphate released/min/mol of enzyme) (mol/(min mol)) (Casein Ser(P)): 1.8
- Phosphatase activity (mole of phosphate released/min/mol of enzyme) (mol/(min mol)) (MyBP Tyr(P)): 0.5
- Phosphatase activity (mole of phosphate released/min/mol of enzyme) (MyBP Ser(P)/Tyr(P)): ~0.0^b

B3: GST-PLIP (recombinant murine PLIP fusion protein with N-terminal GST and 6-His tags) (protein)
chain: MAASAWLEAGLARVLFYPTLLYTVFRGRVRGPAHRDWYHRIDHTVLLGALPLKNMTRRLVLDENVRGVITMNEEYETRFLCNTSKEWKKAGVEQLRLSTVDMTGVPTLANLHKGVQFALKYQALGQCVYVHCKAGRSRSATMVAAYLIQVHNWSPEEAIEAIAKIRSHISIRPSQLEVLKEFHKEITARAAKN
- Phosphatase activity (mole of phosphate released/min/mol of enzyme) (Casein Ser(P)): ~0.0^b
- Phosphatase activity (mole of phosphate released/min/mol of enzyme) (mol/(min mol)) (Casein Ser(P)): 0.2
- Phosphatase activity (mole of phosphate released/min/mol of enzyme) (mol/(min mol)) (MyBP Tyr(P)): 0.1
- Phosphatase activity (mole of phosphate released/min/mol of enzyme) (MyBP Ser(P)/Tyr(P)): ~0.0^b
